Reference: paper PMC6426602, “Structure of Vibrio FliL, a New Stomatin-like Protein That Assists the Bacterial Flagellar Motor Function” (mBio, 2019)

B1: periplasmic region of polar FliL (FliLPeri) of Vibrio alginolyticus (domain or fragment, UniProt A0A7H8DP68 41-167, looked up)
chain: GSDEPAQAESSQQAQVKASDAAPIAYVNLPQAFVFNVTGDSRDRLVQIKAQLMVRGAENEELARYHSPLIESSMLSTFASATVDQLRSPTGRVELRDRASEDIKAALNAAVGKPVIEKVLFTDFVIQ
notes: polar flagellar FliL of Vibrio alginolyticus, periplasmic region, residues 41 to 167; Residues 41-57 are invisible in the map; also called His6-FliL_(Peri); copies: 10
B2: FliLC, trypsin-resistant core of the periplasmic region of polar FliL (residues 58 to 167) (domain or fragment, Vibrio alginolyticus, UniProt A0A7H8DP68 58-167, looked up)
chain: ASDAAPIAYVNLPQAFVFNVTGDSRDRLVQIKAQLMVRGAENEELARYHSPLIESSMLSTFASATVDQLRSPTGRVELRDRASEDIKAALNAAVGKPVIEKVLFTDFVIQ
notes: polar flagellar FliL of Vibrio alginolyticus, fragment of residues 58 to 167 left after trypsin digestion of FliLPeri; also called FliL_(58-167)

What was measured:
[1] = target: the molecule itself; test: crystal structure; FliLPeri crystal, space group P4(2)2(1)2, 3.4 Å, 20 molecules in the asymmetric unit; sitting drop at 20°C, protein 70 mg/ml in 20 mM Tris-HCl pH 8.0, 150 mM NaCl; reservoir 0.1 M sodium acetate pH 6.0, 25% PEG 200, 0.15 M CaCl2, 1.4% EtOH
[2] = target: the molecule itself; test: crystal structure; FliLC crystal, space group P6(1), 2.1 Å, two molecules in the asymmetric unit; sitting drop at 20°C, protein 10 mg/ml in 20 mM Tris-HCl pH 8.0, 150 mM NaCl; reservoir 0.1 M sodium acetate pH 4.4, 22.5% PEG 4000, 0.2 M ammonium sulfate

Row | Protein | stoichiometry N [1] | binding result [2]
1 | B1 | 10 subunits in a ring | 
2 | B2 |  | binds
